Experimental data published in article PMC6182170.

Tests used:
[1] = biological target: T1, ADR-1 WT (Caenorhabditis elegans) (UniProt Q9U3D6); assay: EMSA; conditions: EMSA: 20 pM dsRNA, 50 mM KCl, 10 mM Tris-HCl pH 8.0, 10% glycerol, 1 mM MgCl2, 0.5 mM DTT, on ice 30 min; native 6% gel, 0.5x TBE, 4 C
T1 sequence: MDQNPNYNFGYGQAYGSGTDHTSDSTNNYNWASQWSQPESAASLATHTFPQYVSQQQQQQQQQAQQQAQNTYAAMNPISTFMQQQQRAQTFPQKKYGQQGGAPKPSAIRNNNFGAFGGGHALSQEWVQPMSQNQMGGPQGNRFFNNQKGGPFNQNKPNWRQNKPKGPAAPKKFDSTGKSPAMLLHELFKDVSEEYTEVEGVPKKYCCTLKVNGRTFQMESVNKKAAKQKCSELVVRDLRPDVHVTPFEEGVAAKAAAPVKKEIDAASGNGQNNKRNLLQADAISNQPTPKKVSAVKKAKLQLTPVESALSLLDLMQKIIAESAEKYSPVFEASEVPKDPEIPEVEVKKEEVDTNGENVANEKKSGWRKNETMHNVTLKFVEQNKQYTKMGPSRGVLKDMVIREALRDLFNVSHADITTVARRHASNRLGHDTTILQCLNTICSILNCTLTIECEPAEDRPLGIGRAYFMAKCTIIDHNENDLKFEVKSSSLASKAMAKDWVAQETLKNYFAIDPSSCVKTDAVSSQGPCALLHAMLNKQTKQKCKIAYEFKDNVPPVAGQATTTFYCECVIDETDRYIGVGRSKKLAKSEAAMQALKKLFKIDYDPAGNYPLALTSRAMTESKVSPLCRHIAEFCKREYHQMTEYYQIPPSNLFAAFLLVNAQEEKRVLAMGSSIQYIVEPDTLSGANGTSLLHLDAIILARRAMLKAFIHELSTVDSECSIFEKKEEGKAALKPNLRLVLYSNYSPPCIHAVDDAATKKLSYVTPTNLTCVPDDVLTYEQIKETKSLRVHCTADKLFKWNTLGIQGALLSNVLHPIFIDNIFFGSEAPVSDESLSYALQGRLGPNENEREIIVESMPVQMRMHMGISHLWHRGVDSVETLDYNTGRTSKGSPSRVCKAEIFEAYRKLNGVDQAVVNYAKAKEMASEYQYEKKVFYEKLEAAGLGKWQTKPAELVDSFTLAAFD

[2] = biological target: ADR-2 WT (Caenorhabditis elegans) (UniProt Q22618); assay: EMSA; conditions: EMSA: 20 pM dsRNA, 50 mM KCl, 10 mM Tris-HCl pH 8.0, 10% glycerol, 1 mM MgCl2, 0.5 mM DTT, on ice 30 min; native 6% gel, 0.5x TBE, 4 C
Chain of ADR-2 WT (Caenorhabditis elegans) (Q22618 whole entry): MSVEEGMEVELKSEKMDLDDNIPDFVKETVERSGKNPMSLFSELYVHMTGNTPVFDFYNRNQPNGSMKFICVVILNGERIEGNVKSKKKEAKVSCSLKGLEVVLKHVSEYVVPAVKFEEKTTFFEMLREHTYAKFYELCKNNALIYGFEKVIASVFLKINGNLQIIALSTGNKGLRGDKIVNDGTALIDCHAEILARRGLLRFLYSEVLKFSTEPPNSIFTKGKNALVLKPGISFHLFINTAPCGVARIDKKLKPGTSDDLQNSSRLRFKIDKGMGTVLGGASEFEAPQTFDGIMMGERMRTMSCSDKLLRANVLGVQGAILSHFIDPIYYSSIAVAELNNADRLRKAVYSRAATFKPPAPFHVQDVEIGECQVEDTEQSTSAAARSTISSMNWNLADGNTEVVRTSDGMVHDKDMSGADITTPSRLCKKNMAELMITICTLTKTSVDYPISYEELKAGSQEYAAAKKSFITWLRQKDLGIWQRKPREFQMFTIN

Q: “UUAUUAGGUCGGCAAAUAAUUAUUGACGUGUUUUGCCAAUUAACGAUUUUUUGUAAAUUUUAUAUGUGUCUCUUACAGUAAACCGAGAGUGUAUAAAAGCAUAUGAAUAUCAGUUGCUUUGGUCAUCUGAGUAGUAAUACGAUUCGAAAAAAUCGAAAAGUUUUUUUUCCAAUUUUUUGAGUUAGCCGUGAGAGUUG / CAACUCUUCACAGCUAACUCAAAAAAUCGCGAAAAGCAUUUUUCAAAAAAUUUUUGAUUUUUUAGAUUCUUAAUACUACGCAGGUAGCCAAAGUAGCUGAUAUUUUUAUGUUUUCAUACAUUCACAUUUUACUAUAAGACACACAUACAAAAUUUACAAAAAUUGUUAAUUGACAAAAUACGUCAAUAAUUAUUUGUCUACCUAAUAA [lam-2 3'UTR 200 bp dsRNA]” was tested. Which Kd [1] did it give?
A: Its Kd is 0.43 nM.

Q: And the Kd [2]?
A: The Kd was 76.3 nM.
